Target: HLA-B*0702 class I heavy chain (free heavy chain, C1R transfectant B7C1R) (human)
Assay: nonreducing SDS-PAGE of immunoprecipitates

stoichiometry N: 2
Substance: HLA-B*0702 class I heavy chain (free heavy chain, C1R transfectant B7C1R) (natural protein)

— paper PMC2191818
